The results in this text go back to patent US20190175467A1, “COMPOSITION FOR THE TREATMENT OF ACNE” (ROTTAPHARM LTD., priority 2015, published 2019).

Usually MIC stands for the smallest concentration in the dilution series that meets the test's criterion for growth inhibition. Lower therefore signals a more susceptible organism.

Assay [1] concerns Staphylococcus aureus ATCC 25923. Briefly: Determination of MIC and MBC, Staphylococcus aureus. The class given is cell-based. How it is done: (§1) A series of test tubes was prepared containing the culture broth inoculated with the test micro-organism and the substance to be tested was introduced at decreasing scalar concentrations. […] The test tubes in which the microbial population developed were then determined by observing visually the turbidity that is indicative of growth. Test tubes in which the substance is present at a sufficient concentration to inhibit growth remain clear. When the nature itself of the sample prevents visual reading or if it is wished to determine whether the lack of development is due to a microbiostatic or microbicidal action, transfers are made to appropriate agar media for confirmation. The concentration of sample at which growth of the micro-organisms is inhibited is considered to be the Minimum Inhibitory Concentration (MIC), while that at which viable micro-organisms are no longer present is considered to be the Minimum Bactericidal Concentration (MBC) The antibacterial activity of these substances against Staphylococcus aureus acnes ATCC 25923 and Staphylococcus epidermidis ATCC 12228 was tested according to the above-described method.

Assay [2] has as its system Staphylococcus epidermidis ATCC 12228. As to the kind of experiment: Determination of MIC and MBC, Staphylococcus epidermidis. The class given is cell-based. How it is done: as §1

B1: Lactoferrin (protein, UniProt P02788 20-710, looked up)
Lactotransferrin: GRRRSVQWCAVSQPEATKCFQWQRNMRKVRGPPVSCIKRDSPIQCIQAIAENRADAVTLDGGFIYEAGLAPYKLRPVAAEVYGTERQPRTHYYAVAVVKKGGSFQLNELQGLKSCHTGLRRTAGWNVPIGTLRPFLNWTGPPEPIEAAVARFFSASCVPGADKGQFPNLCRLCAGTGENKCAFSSQEPYFSYSGAFKCLRDGAGDVAFIRESTVFEDLSDEAERDEYELLCPDNTRKPVDKFKDCHLARVPSHAVVARSVNGKEDAIWNLLRQAQEKFGKDKSPKFQLFGSPSGQKDLLFKDSAIGFSRVPPRIDSGLYLGSGYFTAIQNLRKSEEEVAARRARVVWCAVGEQELRKCNQWSGLSEGSVTCSSASTTEDCIALVLKGEADAMSLDGGYVYTAGKCGLVPVLAENYKSQQSSDPDPNCVDRPVEGYLAVAVVRRSDTSLTWNSVKGKKSCHTAVDRTAGWNIPMGLLFNQTGSCKFDEYFSQSCAPGSDPRSNLCALCIGDEQGENKCVPNSNERYYGYTGAFRCLAENAGDVAFVKDVTVLQNTDGNNNEAWAKDLKLADFALLCLDGKRKPVTEARSCHLAMAPNHAVVSRMDKVERLKQVLLHQQAKFGRNGSDCPDKFCLFQSETKNLLFNDNTECLARLHGKTTYEKYLGPQYVAGITNLKKCSTSPLLEACEFLRK
Turning to B1, the MIC in assay [1] and in assay [2] was greater than 20 mg/mL throughout.
